In the supplement of paper PMC12455559:

Experiment: purified protein yield per well (BCA); higher = higher soluble expression
Outline: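 On an OT-2 robot, lysed cells were processed by binding protein to Ni-charged magnetic beads and releasing it with SUMO protease. Expression took place in E. coli C41(DE3), in 2 mL autoinduction cultures with 100 µg/mL kanamycin, for 2 h at 37 °C followed by 40 h at 18 °C. The Pierce Rapid Gold BCA kit was used to quantify purified protein yield in each well, with values under 25 ug (0.1 mg/mL) below the detection threshold.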
For “RSGPYQVAYYTQLPPVPEFGAATLYFPANKGQDFSGVVIAPGYIEQQENISWWGNHLASHGFAVLTIDTNSLQDNPQLRAEALMAGVELLRGENTRMGGTLRGKFHEQQMAVMGHSMGGGGALLAANNSGGELKAAIPLTPWLPDGDFGAVAVPTLLISGETDRIAAVADHARLHYQSLPEELTKMYLEIKGGNHFIANSIVENEGLNPNIDVRDLVGGMA [TEP023]”, the “purified protein yield per well” value was under 25 µg.
With “SAAGNNIGHRQGGDTFASATVIEALPFSDSGTTSGFNNDYGPYSNQSSYNICQWQGYYDNTNTGAGPDVVYSLALSEEKTVKISLCGSDYDTGLGVFDGSGVQVLGNDDACSLQSEVVCALPEGLYYIVVDGYSTSSGNYVLNVSIEEDLFGPYSVGTITEDDGLRDGPDYCCGIVYYPTDAVGYLPAIVYIPGYAGTISSNENWGPYLASHGIVTMFVNANFSLASNETRAEALLDGLVTIQDENQRPGSPLYGNLNLNQLAVAGHSRGGGAALLAAAAEPSVNAVLALAPWLEDQFINSTTLDQDVPVLFLSGQLDESAPNDVHTNLFYAYTPETTDKLLYEISGGDHFIVKDPSNNSAMAMKALYWLEKYLTNDPTHC [TEP001]” the “purified protein yield per well” value was under 25 µg.
In the case of “SAPVHHRAATHTSAAAHHHAPFAVRTTVVPRTAVTKFGGGVIYAPLDTGKPVLGAVVITPGFTDTNANEKEMAELVASQGFVAFAIDTLTTDDLPDLRAAQMLAAADYLTGQSAVRSEVSQDDVGLIGYSFGGGGTMQAAQSRPSIKAAIGLMPFDFPPATDPNAMYPSYPKMTTPTLVITGQKDDVADPKDFGKPAYDSIPAGTPKQYLELAGIGHEGGQHVPSATIRNAVTAFLKRYLDGNSAYAKFICPAPKVGGPISASLSSCPKG [ESM131]”, the “purified protein yield per well” value is reported as under 25 µg.
In the case of “SASASAPAASRVQAAASGNTYQRGPDPTLSSVAASTGPFATAQVSVPAGYGFKGGMIYYPTDTSLGTWGAVAIVPGYTALFANEEAWMGPWLASFGFVVIGVETNSTTDYDTQRGTELLAALNYLTTQSPVRDRVDPTRLGVIGHSMGGGGVVYATEHQPSLKGAVALAPFSPSQSMATDTVPTMVMGGQNDTVVTPSYLAGLYATLPASTQSDFIQIAGADHIYYTHPNPVEMRILIPWLKTFLDEDTRYTQFLCPTLADPSGVSMYQSKCPYVPGGGSTPPPPAGGALHAVGAGKCVDVPNSTTTSGTQVQIYSCNGQANQAFTHNSAGELAVTDAGVTDCLDANGKGTTNGTKVIIYPCNGQPNQQWTINSNGTITGVQSGLCLDVTGASTANGALVELWTCNGGSNQKWTLS [TEP058]”, the “purified protein yield per well” value is reported as under 25 µg.
With “SGGSSPDGPRESRQDGPSSAGPSYPSAGPLEGPYEVRTQTVGPDDVGGRFRGGTVYYPADGSRDYGVIAASPGLGADQSMVQAYGALLASHGFVLITFDTKTPQDSPAQRGRQMLDALDWAAEHSAAAGRADPDRLGVMGHSMGGGAALHAASRDPRIKAAVPLTPYAGKRDWSGVTAATLVVSGSDDEVAPPSGHARAFYDGLDDAKEKAYLELKGDHFVATPPDRLVSRQTVAWFKHFVGGDKAAGEDLCPAPREERVVASRDTCPYG [TEP134]” the “purified protein yield per well” value was under 25 µg.
With “SNPAPEPSPTPSPSPSQPSNPFQRGPNPTVASVESAGPFAVRTSRVSSAVSGFGGGTIYYPSGTTGTMAAIVVIPGYVSSQSSIEWWGPRLASNGFVVMTIDTNATTDQPPARARQINAALDYLIAQNRASGSPVNGMIDTSRLGVVGWSMGGGGTLRVASEGRIKAAIPLAPWDTTTFRNVKAPTLIFACESDTIAPVRNHASPFYNQVPTSIPKAFVQLNRGNHYCANGGNAFNADLSRLGVSWMKRFLDNDRRFSQFLCGPN [ESM016]” the “purified protein yield per well” value was under 25 µg.
In the case of “SPPIVRYDYAPGKYSGNGPYSYSTYQLPGWSPGATVYYPTNASPPFSGIVFCPPYTGTQSNFAAWGPFFASHGIVLVTMDTSSTLISVDQRAIEQRMVLDLLKAERNRPGSPLYNKIDPERVGAMGWSMGGGASWINSAEYPGLKTAMSLAGHHLTAINPNAKGYGTQCPTIIFCGLLDQTILGGMLQSETVYYNIPSGIPKVFYEVSTAGHFVWYSPTAANSHVAELALAFQKTFLDGDTRWEQYIEEPLFD [TEP034]”, the “purified protein yield per well” value is reported as under 25 µg.
With “SPVLALVAGPALANPYQRGPDPTDASITAETGPFKTASVVVPSNTDPGFAGGTIYYPTDTSQGTFAPIVVTPGFVSPQWAISWYGPRLASQGFVVMTIDTLGLFDVVDQRGKEMLAALDYLTNRSAVKDRIDPTRPGLMGHSMGGGGVIRAAAERPGIKAVVPLAPWDPNSSYAWNVKADTLVVGGESDMIAPVAANAEPIYKDLRSAPEKAYLELSGADHVFAFNLPNTTIAKYAIAWMKRFLDDDVRYDRFLCPAPAPGGAIKQYQDTCPNG [TEP158]” the “purified protein yield per well” value was under 25 µg.
For “SQGTFGAAVVSPGFLSPQVAWAGPRIASHGFVVLTIDTNTIFDSPTSRSQQLQAALSYLVSPASGVANRIDPSRLAAMGHSMGGGGTLELAARLPTLQAAVPLQPWDIAQSFSGIRVPTMIIGAQADFIAPVASHSEPFYQQVPATTEKAYLEVAGADHLIGLLGNPTQARYSVAWLKRYVDDDTRYDQFICPPPSGPTISEYRNTCPP [TEP153]”, the “purified protein yield per well” value was under 25 µg.
For “SSVNCDSLAQIALLNPGPYSVSSLDESDNIRNGPDYAGAHIYYPTNASGSLSSIVLVPGFMNFESTLQNWGPFLAAHGIVTMTIGANYLTDSPTHRKEALLDAIVTLKAEQTRIGSPLYYSLNINNFAVGGFSMGGGGAQLAAVSDPTIKAIIALNPYLSNASEADFNHNCPVLITSGELDFIANPNLHANVHYAVTPDSTPKQLYEIQNAGHDPLIGPNGGYGEVGMKVLSWLQAFLNDNHCYCPPILTVPTTASSFTHNIVCEDLFIQGCTDSTACNYNPNATIDDGSCETQSCACPGDLNGDYAITVADVLLTLSEFGCMTNCTADIDGDGFVNVTDILELLSMFGTVC [TEP145]”, the “purified protein yield per well” value was under 25 µg.
For “STPAHHAAARTAAHHHAPFAVRATVVPKTAVKAFGGGVIYTPQDTGKAVLGAVVITPGFTDTSADEKEMAELVASQGFVAFAIDTLDTGDLPDQRATEILAAADYLTGQSAVRSEVSAKDVGLIGYSFGGGGTMQAAQARPSIKAAIGLMPYDFPPADQPDAQYPAYPKLTTPTLVITGQKDDLAVPAEFGKPAYDSIPAGTPKQYLELKGLGHAAGEHVPVATIRTAVTAFLKRYLDGNSAYAKYICPAPKVGGPISASTSSCPKG [TEP196]”, the “purified protein yield per well” value was under 25 µg.
In the case of “STPVHHAAARTAVPHHAPFAVRTTVVPKTAVKAFGGGVIYTPQDTGKPVLGAVVITPGFTDTNADEKATAELVASQGFVAFAIDTLDVYDLPDQRATEMLAAADYLTGTSAVKSEVSANDVALLGYSFGGGGTMQAAQSRPSIKAAVTLMPYDFPPADQPDAQYPAYPKLTVPTLVITGQKDDVAVPADFGKPAYDSIPAGTPKQYLELKGLDHYAGHRAPTPTIRTAVTAFLKRYLDGNSAYAKFICPAPKVGGPITASISSCPKG [ESM164]”, the “purified protein yield per well” value is reported as under 25 µg.
With “STPVHHAAASYTSTAAHHHAPFAVRTTVVPKTAVTTFGGGVIYTPQDTGKPVLGAVVITPGFTDTNANEKEMAELVASQGFVAFAIDTLTTDDLPDLRATQMLAAADYLTGQSAVRSQVSKDDVGLIGYSFGGGGAMQAAQSRPSIKAAIGLMPFDFPPATDPDAMYPAYPHMTTPTLVITGQKDDVADPKDFGKPAYDSIPAGTPKQYLELTGLGHAAGQHVPVATIRTAVTAFLKRYLDGNSAYAKYICPAPKVGGPISASLSSCPKG [TEP069]” the “purified protein yield per well” value was 25.8 µg.
For “TPEAPAARAAENPYERGPDPTESSIEAPRGSYSVSERSVSSLSVRGFGGGTIYYPTSTADGTFGAVAISPGFTARQSSMAWYGERLASQGFVVFTIDTNTTMDQPASRGDQLLAALDYLTDDSAVRSRIDSNRLAVMGHSMGGGGSLEAAKDRPSLKAAIPLTPWNTDKSWPEVRVPTFIVGADGDSIASVRSHAEPFYESLPSSTDRAYMELRNATHFAPNSADTEIAKYSISWLKRFVDEDTRYEQFLCPIPSSDLQIAEFRGNCPH [TEP075]”, the “purified protein yield per well” value was under 25 µg.
For “TQSGPYQVKRYREKDGLRNGPRYRGATVYYPTDARGLLASIVIVPGYISPERSIRAWGPFYASHGIVAMTIGTNRPQDAPAARRRALLDAITSLKLENHRANSPLKGRLAVTRIAVSGWSMGGGGALEAATRAPQLKAVVALCPWNPYQTFSHRVPVLFLAGQRDRLAPVSDNALRHYEKTPASTPKLLFEVRNEGHWVANTPQGGNGAIGRLALS [TEP155]”, the “purified protein yield per well” value was under 25 µg.
In the case of “VANPYQRGPAPTEASVTAKLGPFAIASKKVGAFSHPGIREGTVYYPTDTSQGTFGAIAVAPGFVSPEALVSWYGPRLASQGFVVMTLEITTGFDLPEARAAQLLSALDFMKKDNTIKNRIDPNRLAVMGWSMGGGGTLRAAQQSASLKAAIPLAPWDLGMDWSNVRVPTMIIGGDNDFVASPGFHAEPFYTQLADEKAYLELENAGHFTFTSDNNTIAKYAISWMKRWVDEDTRYTQFLCPPPPAPSPTIQKYRQTCPY [DP046]”, the “purified protein yield per well” value is reported as under 25 µg.
For “VASPYQRGPDPTVASIEASRGPFAIAQTTIAASSVRGFRGGTVYYPTSTAEGTFGAVAISPGYTATQSSVAWLGPRLASQGFVVVTIDTLSRYDQPASRGTQLLAALDHLTTASSVRTRIDRNRLAVMGHSMGGGGSLSAANTRPTLQAAIPLTGWHTVKNWSGVRVPTLVVGAENDSIAPVTSHSEPFYTSLPSTLDKAYLELNAAGHSAPTSSNVTVAKYSISWLKRFVDDDTRYEQFLCPAPRGTAIQEYRDTCPHS [DP083]”, the “purified protein yield per well” value was under 25 µg.
In the case of “VEIGPAPTSTLLNGDGPFAVSTDSVSSLVTGFGGGTIYYPTTSGQYAAVAVCPGFTGTSSSISWFARRLATHGFVTIAMNTNTIYDYPSSRATQLAAALRYLLNSSSSTIRARIRTADRAVAGHSMGGGGTLIASANDSTLRAGIPLTPWNTYTSFSSVRVPQMIFGADGDTIAPYASHARPFYNSLSYPEKAYALLNGATHFTPNSTDQRIGRYGVAFAKRFVDGDTRYTPFLCGAEHTAYATSSRFDTYLSTCPY [TEP032]”, the “purified protein yield per well” value is reported as under 25 µg.
With “VEIGPAPTSTSLNSDGSFAVSSASVSSSACGSGCAGGTVYYPNTAGSYGVIAVCPGFTNTSSAISWFARRMATHGFVTIAMNTNSRYDFPASRATQLRAVLNYLVNSSSSTIRSRIRSADRGVSGYSMGGGGTLLASRDDSTLKTGVPMAPYNSGTISGVNVPQMIIGGSNDSIAPVSSMARPFYNNIPSTVKKALAVLNGASHLTFTSYDERAARYGVAFAKRFADGDTRYTPFLCGAEHTAYATSSRFTEYSSNCPY [ESM020]” the “purified protein yield per well” value was under 25 µg.
For “VENGPAPSLASIQADGPYAVSTQTVSGSGFGGGTVYSPNTAGKYAVVAVCPGFTATQSSIAAISRRLATHGFVVVTINTTSVYDFPSSRANQLLAALRTVTALATGPVAGKMDTTRQGVAGWSMGGGGAMLAAGMTPGLKGGVAFAPWSQSNNVSRSAVPMAYLAGTADTVAPAGSHASVFYNATPATTKKLLGVITGADHNFPKTASQPASYTQVAWMKRFLDGDTRYAQFLKGDTRFTTFRSTGPF [ESM107]”, the “purified protein yield per well” value was under 25 µg.
With “VENGPAPTFSSVQAEGPFAVSTQTVRGSGFGGGTVYSPNTAGKYAVVAVCPGFTATQSSIALISRRLATHGFVVVTISTNSVYDYPASRANQLLAALRTVTALTTGPVAGKMDISRQGVAGWSMGGGGAMLAAGMTPGLKAGVAFAPWSLTNNVGSSSVPMAYLAGTADTVAPASSHSTVFYNAMPATTNKLIGVIQGANHYFPGTASQPASYTQVAWMKRFLDGDTRYSQFLNGDSRFATFRSTGPF [ESM102]” the “purified protein yield per well” value was under 25 µg.
